Test results reported in patent publication US20170189507A1, “NOVEL PEPTIDES AND COMBINATION OF PEPTIDES FOR USE IN IMMUNOTHERAPY AGAINST VARIOUS CANCERS” (immatics biotechnologies GmbH, priority 2015, published 2017).

Legend:
HLA-A*02 = HLA-A*02 (Homo sapiens, UniProt P04439, D140Y/D185E/D98H/E176V/E277Q/G131W/G231S/I119V/I121R/I166T/I218V/N151K/N90K/P208A/P217A/Q86G/Q94H/R138H/R169H); assay: MHC binding assay (UV-ligand exchange, beta2m ELISA), HLA-A*02; details: MHC class I binding score, peptide exchange yield
Source text: (§1) Candidate peptides for T cell based therapies according to the present invention were further tested for their MHC binding capacity (affinity). The individual peptide-MHC complexes were produced by UV-ligand exchange, where a UV-sensitive peptide is cleaved upon UV-irradiation, and exchanged with the peptide of interest as analyzed. Only peptide candidates that can effectively bind and stabilize the peptide-receptive MHC molecules prevent dissociation of the MHC complexes. To determine the yield of the exchange reaction, an ELISA was performed based on the detection of the light chain ([…] of stabilized MHC complexes. The assay was performed as generally described in Rodenko et al. (Rodenko et al., 2006).
(§2) 96 well MAXISorp plates (NUNC) were coated over night with 2 ug/ml streptavidin in PBS at room temperature, washed 4× and blocked for 1 h at 37° C. in 2% BSA containing blocking buffer. Refolded HLA-A*02:01/MLA-001 monomers served as standards, covering the range of 15-500 ng/ml. Peptide-MHC monomers of the UV-exchange reaction were diluted 100 fold in blocking buffer. Samples were incubated for 1 h at 37° C., washed four times, incubated with 2 ug/ml HRP conjugated anti-β2m for 1 h at 37° C., washed again and detected with TMB solution that is stopped with […]. Absorption was measured at 450 nm. Candidate peptides that show a high exchange yield (preferably higher than 50%, most preferred higher than 75%) are generally preferred for a generation and production of antibodies or fragments thereof, and/or T cell receptors or fragments thereof, as they show sufficient avidity to the MHC molecules and prevent dissociation of the MHC complexes.

CD8+ T cells = assay: In vitro immunogenicity: T-cell priming with aAPCs loaded with peptide/MHC complexes and anti-CD28 antibody, pMHC multimer readout; type: cell-based, human; details: for Wells positive [%]: in vitro immunogenicity of HLA class I peptides, peptide-specific multimer+ wells after aAPC priming of CD8+ T cells; for Wells (in vitro immunogenicity of HLA class I peptides): CD8+ T cells of healthy donors, three stimulation cycles, multimer staining, Table 19A
Method: In an aspect, the peptides are pre-screened for immunogenicity before being included in the warehouse. By way of example, and not limitation, the immunogenicity of the peptides included in the warehouse is determined by a method comprising in vitro T-cell priming through repeated stimulations of CD8+ T cells from healthy donors with artificial antigen presenting cells loaded with peptide/MHC complexes and anti-CD28 antibody.
In order to obtain information regarding the immunogenicity of the TUMAPs of the present invention, the inventors performed investigations using an in vitro T-cell priming assay based on repeated stimulations of CD8+ T cells with artificial antigen presenting cells (aAPCs) loaded with peptide/MHC complexes and anti-CD28 antibody.
In order to perform in vitro stimulations by artificial antigen presenting cells loaded with peptide-MHC complex (pMHC) and anti-CD28 antibody, the inventors first isolated CD8+ T cells from fresh HLA-A*02 leukapheresis products via positive selection using CD8 microbeads (Miltenyi Biotec, Bergisch-Gladbach, Germany) of healthy donors obtained from the University clinics Mannheim, Germany, after informed consent.
PBMCs and isolated CD8+ lymphocytes were incubated in T-cell medium (TCM) until use consisting of RPMI-Glutamax (Invitrogen, Karlsruhe, Germany) supplemented with 10% heat inactivated human AB serum (PAN-Biotech, Aidenbach, Germany), 100 U/ml Penicillin/100 μg/ml Streptomycin (Cambrex, Cologne, Germany), 1 mM sodium pyruvate (CC Pro, Oberdorla, Germany), 20 μg/ml Gentamycin (Cambrex). 2.5 ng/ml IL7 (PromoCell, Heidelberg, Germany) and 10 U/ml IL-2 (Novartis Pharma, Nurnberg, Germany) were also added to the TCM at this step.
Generation of pMHC/anti-CD28 coated beads, T-cell stimulations and readout was performed in a highly defined in vitro system using four different pMHC molecules per stimulation condition and 8 different pMHC molecules per readout condition.
The purified co-stimulatory mouse IgG2a anti human CD28 Ab 9.3 (Jung et al., 1987) was chemically biotinylated using Sulfo-N-hydroxysuccinimidobiotin as recommended by the manufacturer (Perbio, Bonn, Germany). Beads used were 5.6 μm diameter streptavidin coated polystyrene particles (Bangs Laboratories, Illinois, USA).
pMHC used for positive and negative control stimulations were A*0201/MLA-001 (peptide […] (SEQ ID NO. 303) from modified Melan-A/MART-1) and A*0201/DDX5-001 ([…] from DDX5, SEQ ID NO. 304), respectively.
800.000 beads/200 μl were coated in 96-well plates in the presence of 4×12.5 ng different biotin-pMHC, washed and 600 ng biotin anti-CD28 were added subsequently in a volume of 200 μl. Stimulations were initiated in 96-well plates by co-incubating […] CD8+ T cells with 2×10^5 washed coated beads in 200 μl TCM supplemented with 5 ng/ml IL-12 (PromoCell) for 3 days at 37° C. Half of the medium was then exchanged by fresh TCM supplemented with 80 U/ml IL-2 and incubating was continued for 4 days at 37° C. This stimulation cycle was performed for a total of three times. For the pMHC multimer readout using 8 different pMHC molecules per condition, a twodimensional combinatorial coding approach was used as previously described (Andersen et al., 2012) with minor modifications encompassing coupling to 5 different fluorochromes. Finally, multimeric analyses were performed by staining the cells with Live/dead near IR dye (Invitrogen, Karlsruhe, Germany), CD8-FITC antibody clone SK1 (BD, Heidelberg, Germany) and fluorescent pMHC multimers. For analysis, a BD LSRII SORP cytometer equipped with appropriate lasers and filters was used. Peptide specific cells were calculated as percentage of total CD8+ cells. Evaluation of multimeric analysis was done using the FlowJo software (Tree Star, Oregon, USA). In vitro priming of specific multimer+ CD8+ lymphocytes was detected by comparing to negative control stimulations.

HLA-A*24 = assay: MHC binding assay (UV-ligand exchange, beta2m ELISA), HLA-A*24; set-up: species or system human; details: MHC class I binding score, peptide exchange yield
Source text: as §1, §2

Peptide exchange (HLA-A*02)	Substance	also measured
++++ (>=75% = ++++)	1 (LLYPEPWSV; listed as Homo sapiens) [compound 1]	
++++ (>=75% = ++++)	3 (KLEENGDLYL; listed as Homo sapiens) [compound 3]	
++++ (>=75% = ++++)	4 (KLMPGTYTL; listed as Homo sapiens) [compound 4]	Wells positive [%] (CD8+ T cells): + (<20% = +)
++++ (>=75% = ++++)	12 (GLLPLLHRA; listed as Homo sapiens) [compound 12]	Wells positive [%] (CD8+ T cells): ++++ (>=70% = ++++)
++++ (>=75% = ++++)	14 (ILAKDLFEI; listed as Homo sapiens) [compound 14]	
++++ (>=75% = ++++)	16 (YTLDIPVLFGV; listed as Homo sapiens) [compound 16]	
++++ (>=75% = ++++)	34 (FLLATEVVTV; listed as Homo sapiens) [compound 34]	
+ (<20% = +)	42 (LLDSVSRL; listed as Homo sapiens) [compound 42]	
++++ (>=75% = ++++)	51 (LLFSRLCGA; listed as Homo sapiens) [compound 51]	
+ (<20% = +)	82 (FIFDEAEKL; listed as Homo sapiens) [compound 82]	
++++ (>=75% = ++++)	84 (ALCPRIHEV; listed as Homo sapiens) [compound 84]	
++++ (>=75% = ++++)	92 (GLLFSLRSV; listed as Homo sapiens) [compound 92]	
++++ (>=75% = ++++)	95 (GLLGSLFFL; listed as Homo sapiens) [compound 95]	
+ (<20% = +)	100 (ALLGMIIVGV; listed as Homo sapiens) [compound 100]	
++++ (>=75% = ++++)	112 (SLGKFTFDV; listed as Homo sapiens) [compound 112]	
+ (<20% = +)	120 (VTPVTVSAV; listed as Homo sapiens) [compound 120]	
++++ (>=75% = ++++)	125 (SLADYEHFV; listed as Homo sapiens) [compound 125]	
++++ (>=75% = ++++)	126 (QMFQYFITV; listed as Homo sapiens) [compound 126]	
++++ (>=75% = ++++)	129 (RLQDILWFL; listed as Homo sapiens) [compound 129]	
++++ (>=75% = ++++)	133 (ALLPRLHQL; listed as Homo sapiens) [compound 133]	
++++ (>=75% = ++++)	147 (YLMDDTVEI; listed as Homo sapiens) [compound 147]	
++++ (>=75% = ++++)	153 (FISERVEVV; listed as Homo sapiens) [compound 153]	

Peptide exchange (HLA-A*02)	Substance	also measured
	158 (HYSQELSLLYL; listed as Homo sapiens) [compound 158]	Wells positive [%] (CD8+ T cells): + (<20% = +); Peptide exchange (HLA-A*24): ++++ (>=75% = ++++)
	159 (LYNKGFIYL; listed as Homo sapiens) [compound 159]	Wells positive [%] (CD8+ T cells): ++++ (>=70% = ++++); Peptide exchange (HLA-A*24): ++++ (>=75% = ++++)
	163 (DYLKGLASF; listed as Homo sapiens) [compound 163]	Wells positive [%] (CD8+ T cells): + (<20% = +); Peptide exchange (HLA-A*24): ++++ (>=75% = ++++)
	165 (DYTTWTALL; listed as Homo sapiens) [compound 165]	Wells positive [%] (CD8+ T cells): + (<20% = +); Peptide exchange (HLA-A*24): ++++ (>=75% = ++++)
	167 (NYINRILKL; listed as Homo sapiens) [compound 167]	Wells positive [%] (CD8+ T cells): + (<20% = +); Peptide exchange (HLA-A*24): ++++ (>=75% = ++++)
	204 (TYELRYFQI; listed as Homo sapiens) [compound 204]	Wells positive [%] (CD8+ T cells): + (<20% = +); Peptide exchange (HLA-A*24): ++++ (>=75% = ++++)
++++ (>=75% = ++++)	229 (AILAHLNTV; listed as Homo sapiens) [compound 229]	
++++ (>=75% = ++++)	245 (SLLDLPLSL; listed as Homo sapiens) [compound 245]	
++++ (>=75% = ++++)	248 (YLDRFLAGV; listed as Homo sapiens) [compound 248]	
++++ (>=75% = ++++)	249 (GLCERLVSL; listed as Homo sapiens) [compound 249]	Wells positive [%] (CD8+ T cells): + (<20% = +)
++++ (>=75% = ++++)	257 (GLYTDPCGV; listed as Homo sapiens) [compound 257]	
++++ (>=75% = ++++)	258 (LLSERFINV; listed as Homo sapiens) [compound 258]	
	290 (KIVDFSYSV; listed as Homo sapiens) [compound 290]	Wells (in vitro immunogenicity of HLA class I peptides) (CD8+ T cells): ++ (20%-49% = ++)
	291 (KLDETGNSL; listed as Homo sapiens) [compound 291]	Wells (in vitro immunogenicity of HLA class I peptides) (CD8+ T cells): + (<20% = +)
	292 (GMMTAILGV; listed as Homo sapiens) [compound 292]	Wells (in vitro immunogenicity of HLA class I peptides) (CD8+ T cells): + (<20% = +)
	293 (FLVDGSWSI; listed as Homo sapiens) [compound 293]	Wells (in vitro immunogenicity of HLA class I peptides) (CD8+ T cells): + (<20% = +)
	295 (YYPGVILGF; listed as Homo sapiens) [compound 295]	Wells (in vitro immunogenicity of HLA class I peptides) (CD8+ T cells): ++ (20%-49% = ++)
	296 (TYVDSSHTI; listed as Homo sapiens) [compound 296]	Wells (in vitro immunogenicity of HLA class I peptides) (CD8+ T cells): + (<20% = +)
	297 (PFLQASPHF; listed as Homo sapiens) [compound 297]	Wells (in vitro immunogenicity of HLA class I peptides) (CD8+ T cells): ++ (20%-49% = ++)
	298 (RYLEGTSCI; listed as Homo sapiens) [compound 298]	Wells (in vitro immunogenicity of HLA class I peptides) (CD8+ T cells): + (<20% = +)
	300 (AYVLRLETL; listed as Homo sapiens) [compound 300]	Wells (in vitro immunogenicity of HLA class I peptides) (CD8+ T cells): + (<20% = +)
	301 (AYKPGALTF; listed as Homo sapiens) [compound 301]	Wells (in vitro immunogenicity of HLA class I peptides) (CD8+ T cells): + (<20% = +)
